In US20160272683A1 (Novo Nordisk, published 2016):
Numbered stars: 1 amine (or outer) side, 2 acyl side, 3 side chain; on linkers, the order of the positions; unused ones are H or OH. Side chains are listed from the residue outwards. Ends that are not written are not given here. * marks the point of attachment. C20 diacid = O=C(O)CCCCCCCCCCCCCCCCCCC(=O)*; C18 diacid = O=C(O)CCCCCCCCCCCCCCCCC(=O)*; γGlu = O=C(O)[C@H](CCC(=O)[*:2])N[*:1]

T1: human amylin receptor (human calcitonin receptor + human RAMP3) (human) (UniProt P30988)
T1 sequence (looked up) 1: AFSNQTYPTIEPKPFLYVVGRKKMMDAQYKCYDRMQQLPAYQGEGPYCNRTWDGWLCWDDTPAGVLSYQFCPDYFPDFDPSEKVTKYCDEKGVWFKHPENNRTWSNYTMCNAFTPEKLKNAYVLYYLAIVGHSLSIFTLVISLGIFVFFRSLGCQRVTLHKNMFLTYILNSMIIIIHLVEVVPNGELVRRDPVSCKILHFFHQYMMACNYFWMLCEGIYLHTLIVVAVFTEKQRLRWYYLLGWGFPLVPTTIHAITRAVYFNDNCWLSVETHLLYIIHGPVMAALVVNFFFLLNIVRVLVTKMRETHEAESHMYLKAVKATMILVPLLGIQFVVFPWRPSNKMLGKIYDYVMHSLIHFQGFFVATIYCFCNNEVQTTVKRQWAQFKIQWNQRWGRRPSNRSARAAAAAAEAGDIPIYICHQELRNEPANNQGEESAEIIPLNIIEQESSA
T1 sequence (looked up) 2: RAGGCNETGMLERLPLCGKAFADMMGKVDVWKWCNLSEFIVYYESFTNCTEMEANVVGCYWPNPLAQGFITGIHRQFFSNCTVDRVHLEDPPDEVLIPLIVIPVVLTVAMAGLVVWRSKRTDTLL

B1: [N-terminal(C18 diacid-gGlu), des1, 5V, 9V, 10V, 20V, 30S, 31G]mimylin (peptide)
peptide: {C18 diacid-γGlu}-ASEVSTAVVGRLSAELHEVATLPRTETGSGSP-NH2
SMILES: CC(C)C[C@H](NC(=O)[C@H](CCCNC(=N)N)NC(=O)CNC(=O)[C@@H](NC(=O)[C@@H](NC(=O)[C@H](C)NC(=O)[C@@H](NC(=O)[C@H](CO)NC(=O)[C@@H](NC(=O)[C@H](CCC(=O)O)NC(=O)[C@H](CO)NC(=O)[C@H](C)NC(=O)CC[C@H](NC(=O)CCCCCCCCCCCCCCCCC(=O)O)C(=O)O)C(C)C)[C@@H](C)O)C(C)C)C(C)C)C(=O)N[C@@H](CO)C(=O)N[C@@H](C)C(=O)N[C@@H](CCC(=O)O)C(=O)N[C@@H](CC(C)C)C(=O)N[C@@H](Cc1c[nH]cn1)C(=O)N[C@@H](CCC(=O)O)C(=O)N[C@H](C(=O)N[C@@H](C)C(=O)N[C@H](C(=O)N[C@@H](CC(C)C)C(=O)N1CCC[C@H]1C(=O)N[C@@H](CCCNC(=N)N)C(=O)N[C@H](C(=O)N[C@@H](CCC(=O)O)C(=O)N[C@H](C(=O)NCC(=O)N[C@@H](CO)C(=O)NCC(=O)N[C@@H](CO)C(=O)N1CCC[C@H]1C(N)=O)[C@@H](C)O)[C@@H](C)O)[C@@H](C)O)C(C)C
B2: [des1, 4G, 15Q, 21Q, 23Y, 30S, 31K(C20 diacid-gGlu), 32T, 33Y]mimylin (peptide)
peptide: ASGLSTAALGRLSQELHELQTYPRTETGSK([γGlu-C20 diacid])TY-NH2
modifications: N-terminus assumed
SMILES: CC(C)C[C@H](NC(=O)CNC(=O)[C@H](CO)NC(=O)[C@H](C)N)C(=O)N[C@@H](CO)C(=O)N[C@H](C(=O)N[C@@H](C)C(=O)N[C@@H](C)C(=O)N[C@@H](CC(C)C)C(=O)NCC(=O)N[C@@H](CCCNC(=N)N)C(=O)N[C@@H](CC(C)C)C(=O)N[C@@H](CO)C(=O)N[C@@H](CCC(N)=O)C(=O)N[C@@H](CCC(=O)O)C(=O)N[C@@H](CC(C)C)C(=O)N[C@@H](Cc1c[nH]cn1)C(=O)N[C@@H](CCC(=O)O)C(=O)N[C@@H](CC(C)C)C(=O)N[C@@H](CCC(N)=O)C(=O)N[C@H](C(=O)N[C@@H](Cc1ccc(O)cc1)C(=O)N1CCC[C@H]1C(=O)N[C@@H](CCCNC(=N)N)C(=O)N[C@H](C(=O)N[C@@H](CCC(=O)O)C(=O)N[C@H](C(=O)NCC(=O)N[C@@H](CO)C(=O)N[C@@H](CCCCNC(=O)CC[C@H](NC(=O)CCCCCCCCCCCCCCCCCCC(=O)O)C(=O)O)C(=O)N[C@H](C(=O)N[C@@H](Cc1ccc(O)cc1)C(N)=O)[C@@H](C)O)[C@@H](C)O)[C@@H](C)O)[C@@H](C)O)[C@@H](C)O
B3: [N-terminal(C20 diacid), des1, 4G, 15Q, 21Q, 23Y, 30S, 31G, 32T, 33Y]mimylin (peptide)
peptide: {C20 diacid}-ASGLSTAALGRLSQELHELQTYPRTETGSGTY-NH2
SMILES: CC(C)C[C@H](NC(=O)CNC(=O)[C@H](CO)NC(=O)[C@H](C)NC(=O)CCCCCCCCCCCCCCCCCCC(=O)O)C(=O)N[C@@H](CO)C(=O)N[C@H](C(=O)N[C@@H](C)C(=O)N[C@@H](C)C(=O)N[C@@H](CC(C)C)C(=O)NCC(=O)N[C@@H](CCCNC(=N)N)C(=O)N[C@@H](CC(C)C)C(=O)N[C@@H](CO)C(=O)N[C@@H](CCC(N)=O)C(=O)N[C@@H](CCC(=O)O)C(=O)N[C@@H](CC(C)C)C(=O)N[C@@H](Cc1c[nH]cn1)C(=O)N[C@@H](CCC(=O)O)C(=O)N[C@@H](CC(C)C)C(=O)N[C@@H](CCC(N)=O)C(=O)N[C@H](C(=O)N[C@@H](Cc1ccc(O)cc1)C(=O)N1CCC[C@H]1C(=O)N[C@@H](CCCNC(=N)N)C(=O)N[C@H](C(=O)N[C@@H](CCC(=O)O)C(=O)N[C@H](C(=O)NCC(=O)N[C@@H](CO)C(=O)NCC(=O)N[C@H](C(=O)N[C@@H](Cc1ccc(O)cc1)C(N)=O)[C@@H](C)O)[C@@H](C)O)[C@@H](C)O)[C@@H](C)O)[C@@H](C)O
B4: [N-terminal(C20 diacid-gGlu), des1, 4G, 15T, 21E, 23Y, 30S, 31G, 32T, 33Y]mimylin (peptide)
peptide: {C20 diacid-γGlu}-ASGLSTAALGRLSTELHELETYPRTETGSGTY-NH2
SMILES: CC(C)C[C@H](NC(=O)CNC(=O)[C@H](CO)NC(=O)[C@H](C)NC(=O)CC[C@H](NC(=O)CCCCCCCCCCCCCCCCCCC(=O)O)C(=O)O)C(=O)N[C@@H](CO)C(=O)N[C@H](C(=O)N[C@@H](C)C(=O)N[C@@H](C)C(=O)N[C@@H](CC(C)C)C(=O)NCC(=O)N[C@@H](CCCNC(=N)N)C(=O)N[C@@H](CC(C)C)C(=O)N[C@@H](CO)C(=O)N[C@H](C(=O)N[C@@H](CCC(=O)O)C(=O)N[C@@H](CC(C)C)C(=O)N[C@@H](Cc1c[nH]cn1)C(=O)N[C@@H](CCC(=O)O)C(=O)N[C@@H](CC(C)C)C(=O)N[C@@H](CCC(=O)O)C(=O)N[C@H](C(=O)N[C@@H](Cc1ccc(O)cc1)C(=O)N1CCC[C@H]1C(=O)N[C@@H](CCCNC(=N)N)C(=O)N[C@H](C(=O)N[C@@H](CCC(=O)O)C(=O)N[C@H](C(=O)NCC(=O)N[C@@H](CO)C(=O)NCC(=O)N[C@H](C(=O)N[C@@H](Cc1ccc(O)cc1)C(N)=O)[C@@H](C)O)[C@@H](C)O)[C@@H](C)O)[C@@H](C)O)[C@@H](C)O)[C@@H](C)O
B5: [N-terminal(C20 diacid-gGlu), 4Q, 9V, 15Q, 21Q, 23Y, 27G, 30S, 31G, 32T, 33Y]mimylin (peptide)
peptide: {C20 diacid-γGlu}-EASQLSTAVLGRLSQELHELQTYPRTGTGSGTY-NH2
SMILES: CC(C)C[C@H](NC(=O)[C@H](CCCNC(=N)N)NC(=O)CNC(=O)[C@H](CC(C)C)NC(=O)[C@@H](NC(=O)[C@H](C)NC(=O)[C@@H](NC(=O)[C@H](CO)NC(=O)[C@H](CC(C)C)NC(=O)[C@H](CCC(N)=O)NC(=O)[C@H](CO)NC(=O)[C@H](C)NC(=O)[C@H](CCC(=O)O)NC(=O)CC[C@H](NC(=O)CCCCCCCCCCCCCCCCCCC(=O)O)C(=O)O)[C@@H](C)O)C(C)C)C(=O)N[C@@H](CO)C(=O)N[C@@H](CCC(N)=O)C(=O)N[C@@H](CCC(=O)O)C(=O)N[C@@H](CC(C)C)C(=O)N[C@@H](Cc1c[nH]cn1)C(=O)N[C@@H](CCC(=O)O)C(=O)N[C@@H](CC(C)C)C(=O)N[C@@H](CCC(N)=O)C(=O)N[C@H](C(=O)N[C@@H](Cc1ccc(O)cc1)C(=O)N1CCC[C@H]1C(=O)N[C@@H](CCCNC(=N)N)C(=O)N[C@H](C(=O)NCC(=O)N[C@H](C(=O)NCC(=O)N[C@@H](CO)C(=O)NCC(=O)N[C@H](C(=O)N[C@@H](Cc1ccc(O)cc1)C(N)=O)[C@@H](C)O)[C@@H](C)O)[C@@H](C)O)[C@@H](C)O
B6: [N-terminal(C20 diacid-gGlu), des1, 4G, 9V, 15Q, 21Q, 23Y, 30S, 31A, 32T, 33Y]mimylin (peptide)
peptide: {C20 diacid-γGlu}-ASGLSTAVLGRLSQELHELQTYPRTETGSATY-NH2
SMILES: CC(C)C[C@H](NC(=O)CNC(=O)[C@H](CO)NC(=O)[C@H](C)NC(=O)CC[C@H](NC(=O)CCCCCCCCCCCCCCCCCCC(=O)O)C(=O)O)C(=O)N[C@@H](CO)C(=O)N[C@H](C(=O)N[C@@H](C)C(=O)N[C@H](C(=O)N[C@@H](CC(C)C)C(=O)NCC(=O)N[C@@H](CCCNC(=N)N)C(=O)N[C@@H](CC(C)C)C(=O)N[C@@H](CO)C(=O)N[C@@H](CCC(N)=O)C(=O)N[C@@H](CCC(=O)O)C(=O)N[C@@H](CC(C)C)C(=O)N[C@@H](Cc1c[nH]cn1)C(=O)N[C@@H](CCC(=O)O)C(=O)N[C@@H](CC(C)C)C(=O)N[C@@H](CCC(N)=O)C(=O)N[C@H](C(=O)N[C@@H](Cc1ccc(O)cc1)C(=O)N1CCC[C@H]1C(=O)N[C@@H](CCCNC(=N)N)C(=O)N[C@H](C(=O)N[C@@H](CCC(=O)O)C(=O)N[C@H](C(=O)NCC(=O)N[C@@H](CO)C(=O)N[C@@H](C)C(=O)N[C@H](C(=O)N[C@@H](Cc1ccc(O)cc1)C(N)=O)[C@@H](C)O)[C@@H](C)O)[C@@H](C)O)[C@@H](C)O)C(C)C)[C@@H](C)O
B7: [N-terminal(C20 diacid-gGlu), des1, 2L, 4G, 9V, 21S, 23Y, 30S, 31G, 32T, 33Y]mimylin (peptide)
peptide: {C20 diacid-γGlu}-LSGLSTAVLGRLSAELHELSTYPRTETGSGTY-NH2
SMILES: CC(C)C[C@H](NC(=O)CC[C@H](NC(=O)CCCCCCCCCCCCCCCCCCC(=O)O)C(=O)O)C(=O)N[C@@H](CO)C(=O)NCC(=O)N[C@@H](CC(C)C)C(=O)N[C@@H](CO)C(=O)N[C@H](C(=O)N[C@@H](C)C(=O)N[C@H](C(=O)N[C@@H](CC(C)C)C(=O)NCC(=O)N[C@@H](CCCNC(=N)N)C(=O)N[C@@H](CC(C)C)C(=O)N[C@@H](CO)C(=O)N[C@@H](C)C(=O)N[C@@H](CCC(=O)O)C(=O)N[C@@H](CC(C)C)C(=O)N[C@@H](Cc1c[nH]cn1)C(=O)N[C@@H](CCC(=O)O)C(=O)N[C@@H](CC(C)C)C(=O)N[C@@H](CO)C(=O)N[C@H](C(=O)N[C@@H](Cc1ccc(O)cc1)C(=O)N1CCC[C@H]1C(=O)N[C@@H](CCCNC(=N)N)C(=O)N[C@H](C(=O)N[C@@H](CCC(=O)O)C(=O)N[C@H](C(=O)NCC(=O)N[C@@H](CO)C(=O)NCC(=O)N[C@H](C(=O)N[C@@H](Cc1ccc(O)cc1)C(N)=O)[C@@H](C)O)[C@@H](C)O)[C@@H](C)O)[C@@H](C)O)C(C)C)[C@@H](C)O

Molecular target: T1, human amylin receptor (human calcitonin receptor + human RAMP3) (human)
Assay: whole-cell competition vs 125I-rat amylin (Assay Va)

**Q.** With B1 as the binder, how does the IC50 read?
**A.** 1.65 nM

**Q.** How did the IC50 turn out when {C18 diacid-γGlu}-ASELTTAVLGRLEAELHELTTLPRTETGTGTP-NH2 [[N-terminal(C18 diacid-gGlu), des1, 6T, 9V, 14E, 21T, 30T, 31G, 32T]mimylin] was run?
**A.** 19.7 nM

**Q.** For B2, which IC50 is on record?
**A.** 5.45 nM

**Q.** For B3, which IC50 is on record?
**A.** 0.222 nM

**Q.** B4 was tested. Which IC50 did it give?
**A.** 0.431 nM

**Q.** With B5 as the binder, how does the IC50 read?
**A.** 0.338 nM

**Q.** Which IC50 does the source give for B6 here?
**A.** 0.244 nM

**Q.** How did the IC50 turn out when B7 was run?
**A.** 11.8 nM

**Q.** How did the IC50 turn out when {C20 diacid-γGlu}-ASGLSTATLGRLSQELHELQTYPRTETGSGTY-NH2 [[N-terminal(C20 diacid-gGlu), des1, 4G, 9T, 15Q, 21Q, 23Y, 30S, 31G, 32T, 33Y]mimylin] was run?
**A.** 0.079 nM
